Experimental data reported in article PMC5100564 (Nucleic Acids Research, 2016).

Target: T1, recombinant GST-Scd6 (S. cerevisiae, UniProt P45978 1-349)
T1 sequence (looked up): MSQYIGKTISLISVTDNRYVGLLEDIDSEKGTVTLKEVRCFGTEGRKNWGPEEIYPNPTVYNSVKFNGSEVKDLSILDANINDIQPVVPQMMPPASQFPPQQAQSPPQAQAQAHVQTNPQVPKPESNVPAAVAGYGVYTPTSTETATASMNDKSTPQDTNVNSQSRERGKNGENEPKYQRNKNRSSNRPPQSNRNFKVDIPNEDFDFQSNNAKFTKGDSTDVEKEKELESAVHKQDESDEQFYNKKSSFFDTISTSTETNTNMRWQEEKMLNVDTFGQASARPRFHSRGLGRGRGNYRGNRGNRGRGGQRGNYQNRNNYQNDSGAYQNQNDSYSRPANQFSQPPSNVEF
Test: pull-down

binding result: binds
B1: recombinant purified His-Hmt1 (enzyme, S. cerevisiae, UniProt P38074 1-348, looked up)
chain: MSKTAVKDSATEKTKLSESEQHYFNSYDHYGIHEEMLQDTVRTLSYRNAIIQNKDLFKDKIVLDVGCGTGILSMFAAKHGAKHVIGVDMSSIIEMAKELVELNGFSDKITLLRGKLEDVHLPFPKVDIIISEWMGYFLLYESMMDTVLYARDHYLVEGGLIFPDKCSIHLAGLEDSQYKDEKLNYWQDVYGFDYSPFVPLVLHEPIVDTVERNNVNTTSDKLIEFDLNTVKISDLAFKSNFKLTAKRQDMINGIVTWFDIVFPAPKGKRPVEFSTGPHAPYTHWKQTIFYFPDDLDAETGDTIEGELVCSPNEKNNRDLNIKISYKFESNGIDGNSRSRKNEGSYLMH
